For test [1], the target named is Redbeads. Put plainly: flow cytometry of red fluoromagnetic beads specific for alemtuzumab in PBS with 3% BSA, sample at 0 ug/ml (background of the series).
The target in test [2] is Redbeads. Nature of the test: flow cytometry of red fluoromagnetic beads specific for alemtuzumab in spiked PBS with 3% BSA; the text words the ug/ml values as concentrations of the beads. For orientation: Flow cytometry measures light scatter and fluorescence of single cells or particles in a stream.

As for alemtuzumab (antibody), in test [1], the Mean, FL1-H (blank sample at 0.0 ug/ml) was determined as 2.11 and the Median, FL1-H (blank sample at 0.0 ug/ml) is 1.68. In test [2], this substance came in with a Mean, FL1-H (sample at 0.1 ug/ml) of 5.69; a Mean, FL1-H (sample at 0.5 ug/ml) of 49.1; a Mean, FL1-H (sample at 1.0 ug/ml) of 94.4; a Mean, FL1-H (sample at 10 ug/ml) of 493. In test [2], this substance came in with a Median, FL1-H (sample at 0.1 ug/ml) of 5.26; a Median, FL1-H (sample at 0.5 ug/ml) of 36.2; a Median, FL1-H (sample at 1.0 ug/ml) of 74.3; a Median, FL1-H (sample at 10 ug/ml) of 483.

The record behind these values is patent publication US20160146829A1.
